Measured values taken from the supplement of paper PMC10567573.

B1: SFRS1 (parent)
chain: RDIDLKNRRGGPPFAFVEFEDPRD
B2: SMOC2 (parent)
chain: QKPLCASDGRTFLSRCEFQRAKCK

Variants of: B1
Assay: protein stability index of a GFP-peptide fusion (GPS, HEK-293T) (PSI 1-6); higher = more stable
Settings: c terminus: a fixed tail appended
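Further: lentivirally expressed fusions sorted by FACS into six bins by GFP to DsRed ratio, PSI derived from sequencing read proportions per bin multiplied by bin number.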

Protein stability index of substitutions, site by site:
D24: C 2.46; M 2.64; Q 3.39; A 3.74; L 2.31; W 1.33; N 2.9; S 3.02; G 3.47; Y 2.5; V 3.11; K 3.65; F 2.15; T 3.13; I 2.72; E 4.76; R 3.19; H 3.59; P 3.42
R23: Y 3.19; P 4.53; H 4.17; E 4.1; M 3.79; S 4.07; N 4.24; G 3.84; F 3.37; W 3.62; I 3.67; D 4.18; K 4.14; T 4.33; Q 4.15; L 3.72; V 3.45

Variants of: B2
Assay: as above
Settings: c terminus: a fixed tail appended

Protein stability index of substitutions, site by site:
S14: L 3.76; V 3.22; N 3.47; M 3.66; D 3.21; W 2.21; E 3.08; I 2.48; P 4.08
C5: T 3.41; Y 2.38; D 3.29; N 4.28; I 1.74; F 2.01
T11: K 4.04; N 3.06; R 2.52; Y 2.03
F12: Q 4.5; A 3.84; E 4.5; G 3.93; S 4.83
Q19: G 3.15; W 1.55; H 3.58; P 3.28; F 2.53; K 3.67
D8: E 3.66; Y 2.67; R 3.23; V 2.76; C 1.63
R20: C 3.45; S 3.19; K 3.47; W 2.4; E 3.45
S7: V 2.59; R 2.38; F 2.8; L 2.82
A6: P 3.32; Y 2.71
A21: I 3.14; R 3.18; H 2.7; W 1.85; C 3.48
P3: L 2.67; W 1.53; K 2.42; A 2.36; C 2.39
L4: M 2.29; I 2.31; Q 2.81; S 3.35; K 2.52
R10: Q 3.33; D 3.76; G 3.17; L 3.04
C23: A 2.9; I 3.41; H 3.92; N 4; P 4.01; D 3.92; L 3.03; W 2.34
E17: I 3.15; Q 4.38; P 3.07; L 2.29; M 2.6; K 3.19; A 3.31; S 2.68; N 3.29
F18: A 3.93; H 4.32; W 1.6; G 4.44; Y 2.21
K2: Y 2.48; V 2.97; L 2.99
K22: G 3.29; C 2.72; S 3.06; Y 2.46; Q 3; I 2.27; T 2.71; L 2.11
G9: D 3.99; K 2.14; E 3.48; P 2.45
K24: L 2.5; Q 2.64; F 1.92; G 2.95; Y 2.49; S 2.88; E 3.19; N 2.48
R15: Q 3.45; Y 3.09; H 3.79; G 3.93
C16: I 1.79; V 2.61; K 3.9; A 3.39; G 4.3; E 4.62; L 2.55
L13: P 3.56; E 3.72; I 2.82
Q1: D 2.68; E 3.39; N 3.36; R 2.76; V 2.58; H 2.48; M 2.78
